Molecular target: GST-tagged intracellular c-terminus of LRP6, in vitro phosphorylated with GSK3 and CK1
Assay: pull-down

## Strep-tag-Mena-EVH1-CC (domain or fragment)
  fold increase of the interaction against unphosphorylated GST-LRP6: 20 fold

— publication doi:10.1101/2025.11.24.690281
